Laboratory results from paper PMC12846780.

Biological target: IL7R (human (endogenous in PBMC T cells, SiHa, Daudi)) (UniProt P16871)
Sequence of UniProt P16871 (P16871 21-459): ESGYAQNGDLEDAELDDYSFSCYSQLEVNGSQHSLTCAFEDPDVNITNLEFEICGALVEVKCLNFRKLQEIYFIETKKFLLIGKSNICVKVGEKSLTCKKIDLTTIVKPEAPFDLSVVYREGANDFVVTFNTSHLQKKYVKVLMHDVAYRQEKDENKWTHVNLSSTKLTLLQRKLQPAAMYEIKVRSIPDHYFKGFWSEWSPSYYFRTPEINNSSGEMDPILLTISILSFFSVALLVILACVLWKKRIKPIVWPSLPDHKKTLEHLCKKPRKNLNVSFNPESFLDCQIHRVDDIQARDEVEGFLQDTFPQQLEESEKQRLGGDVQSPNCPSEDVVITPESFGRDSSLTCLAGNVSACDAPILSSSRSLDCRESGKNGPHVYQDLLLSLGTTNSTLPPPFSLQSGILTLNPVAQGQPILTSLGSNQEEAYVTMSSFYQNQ

- percent of T cells in PBMCs positive for VEGF-647 after 24 h with 10 nM kineTAC and 25 nM VEGF-647 (four donors): 85.4%
Substance: IL7-Bevacizumab kineTAC (from UniProt P13232 26-177) (bispecific antibody)
